Test results from paper PMC9191654.

Key:
[1] = target: anti-OX40 antibody 1A7 with the Fc hexamer variant E345R/E430G/S440Y (RGY); test: SEC
[2] = target: anti-OX40 antibody 1A7 with the κ3-11(49–61) light chain graft and the Fc hexamer variant E345R/E430G/S440Y (RGY); test: SEC

Row | Binder | stoichiometry N [1] | stoichiometry N [2]
1 | anti-OX40 antibody 1A7 with the Fc hexamer variant E345R/E430G/S440Y (RGY) (antibody, V domains shown) VH: EVQLVQSGAEVKKPGASVKVSCKASGYTFTDSYMSWVRQAPGQGLEWIGDMYPDNGDSSYNQKFRERVTITRDTSTSTAYLELSSLRSEDTAVYYCVLAPRWYFSVWGQGTLVTVSS VL: DIQMTQSPSSLSASVGDRVTITCRASQDISNYLNWYQQKPGKAPKLLIYYTSRLRSGVPSRFSGSGSGTDFTLTISSLQPEDFATYYCQQGHTLPPTFGQGTKVEIK | 6 | –
2 | anti-OX40 antibody 1A7 with the κ3-11(49–61) light chain graft and the Fc hexamer variant E345R/E430G/S440Y (RGY) (antibody, V domains shown) VH: EVQLVQSGAEVKKPGASVKVSCKASGYTFTDSYMSWVRQAPGQGLEWIGDMYPDNGDSSYNQKFRERVTITRDTSTSTAYLELSSLRSEDTAVYYCVLAPRWYFSVWGQGTLVTVSS VL: DIQMTQSPSSLSASVGDRVTITCRASQDISNYLNWYQQKPGKAPKLLIYDASNRATGIPARFSGSGSGTDFTLTISSLQPEDFATYYCQQGHTLPPTFGQGTKVEIK | – | 6
